Laboratory results as given in paper PMC2198822 (The Journal of Cell Biology, 2001).

T1: formiminotransferase cyclodeaminase (FTCD), bacterially expressed and purified (rat, UniProt O88618 1-541)
T1 sequence (looked up): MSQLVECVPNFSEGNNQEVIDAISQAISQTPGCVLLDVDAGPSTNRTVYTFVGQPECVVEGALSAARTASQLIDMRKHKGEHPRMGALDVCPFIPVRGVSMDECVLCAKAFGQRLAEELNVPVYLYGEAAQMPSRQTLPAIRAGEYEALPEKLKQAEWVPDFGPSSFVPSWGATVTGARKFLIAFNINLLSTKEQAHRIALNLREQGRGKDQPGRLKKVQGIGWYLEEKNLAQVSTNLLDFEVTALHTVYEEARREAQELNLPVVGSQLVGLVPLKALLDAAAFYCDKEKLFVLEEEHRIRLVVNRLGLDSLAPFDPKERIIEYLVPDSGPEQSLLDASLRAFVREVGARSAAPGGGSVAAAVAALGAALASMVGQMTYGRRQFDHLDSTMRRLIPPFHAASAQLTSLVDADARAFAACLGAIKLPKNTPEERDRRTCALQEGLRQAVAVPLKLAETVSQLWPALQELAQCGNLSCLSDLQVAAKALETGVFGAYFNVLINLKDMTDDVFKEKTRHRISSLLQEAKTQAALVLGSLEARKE

B1: 35S-radiolabeled FTCD generated in vitro by coupled transcription/translation (enzyme, UniProt O88618 1-541, looked up)
chain: T1 sequence (looked up)
modifications: [35S]methionine and [35S]cysteine label
B2: recombinant mouse vimentin, bacterially expressed and purified (natural protein)
chain: not shown

What was measured:
[1] = molecular target: T1, formiminotransferase cyclodeaminase …; test: far-Western, overlay or dot blot
[2] = molecular target: B2; test: far-Western, overlay or dot blot
[3] = molecular target: T1, formiminotransferase cyclodeaminase …; test: co-sedimentation

Binder	fold bound relative to BSA [1] [fold]	fold bound relative to BSA [2] [fold]	binding result [3]
B1	~6	~10	
B2			binds
